The values that follow come from patent US20230110085A1.

The target in assay [1] is human IgG (IVIg, Gamunex) (human). The experiment in a line: cell-based or functional assay.
Assay [2] has as its target purified human IgM (#16-16-090713-M, Athens Research & Technology) (human). Description: cell-based or functional assay.
The target is the same in assay [3]. Description: Western blot of DTT-reduced purified human IgM titrated 1250 to 4.8 ng/well.

“imlifidase (IdeS), immunoglobulin G-degrading cysteine protease of S. pyogenes (enzyme)”: in assay [1], the cleavage on SDS-PAGE (full cleavage) was found to be 2 µg/mL and the cleavage on SDS-PAGE (to scIgG) turned out to be 0.2 µg/mL. Also, in assay [2], the cleavage on SDS-PAGE was more than 200 µg/mL and the digestion on SDS-PAGE gel was more than 200 µg/mL.

“PE-conjugated donkey anti-human IgM (#IGM-PEC1, One Lambda) (antibody)” registered a detection limit (lowest IgM amount with visible band) in assay [3] of 19 ng/well.
